For this experiment, the target named is LhgR, L-2-HG catabolism regulator of Pseudomonas putida W619 (His6-tagged) (Pseudomonas putida W619). The experiment is described as follows: SEC.

Substance “LhgR, L-2-HG catabolism regulator of Pseudomonas putida W619 (His6-tagged) (natural protein)” returned a stoichiometry N of 2.

For orientation: stoichiometry N means a count of units in the complex or per binding partner.

(Values after publication doi:10.1101/2020.07.07.187567.)
